The target of data set [1] is T1, Vezf1 (recombinant His-Vezf1) (Mus musculus, UniProt Q5SXC4).
T1 construct: N-terminal His6 tag (pQE10), kept; E. coli XLBlue (MRF, T7); Ni-NTA; residue borders not given; native protein about 65 kDa, six C2H2 zinc fingers
T1 sequence (Q5SXC4 1-518): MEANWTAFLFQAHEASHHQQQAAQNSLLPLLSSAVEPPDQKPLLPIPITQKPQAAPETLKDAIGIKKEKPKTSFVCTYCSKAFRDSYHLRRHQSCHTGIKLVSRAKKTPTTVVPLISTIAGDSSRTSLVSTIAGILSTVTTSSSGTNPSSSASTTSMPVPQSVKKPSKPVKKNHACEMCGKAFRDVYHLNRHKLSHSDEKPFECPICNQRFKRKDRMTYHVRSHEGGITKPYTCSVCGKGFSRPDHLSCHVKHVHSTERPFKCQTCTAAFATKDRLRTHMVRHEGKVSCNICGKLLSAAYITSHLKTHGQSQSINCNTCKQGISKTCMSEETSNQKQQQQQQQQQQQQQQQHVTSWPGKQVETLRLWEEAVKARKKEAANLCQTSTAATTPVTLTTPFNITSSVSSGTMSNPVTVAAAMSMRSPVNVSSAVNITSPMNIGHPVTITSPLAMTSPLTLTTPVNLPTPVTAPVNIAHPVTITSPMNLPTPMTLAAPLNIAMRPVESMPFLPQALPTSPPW
As to the kind of experiment: EMSA, inhibition of Vezf1 binding to […]-labelled DNA. Particulars: 1 μM or 640 nM (Figure 5C) Vezf1, 25 nM 32P-DNA (HS4-FPIII site), 10 min pre-incubation, 10 mM MgCl2, Hepes 7.5, room temperature; also called effective blocking concentration. Background: In EMSA bound probe runs differently from free probe, usually more slowly.

The target in data set [2] is T1, Vezf1 (recombinant His-Vezf1). As to the kind of experiment: EMSA, single dose. Particulars: 640 nM Vezf1, 25 nM 32P-DNA, 10 min pre-incubation; residual DNA binding, not per cent inhibition; value without compound not given.
Data set [3] has as its target T2, Vezf1 (His-Vezf1) (UniProt Q5SXC4).
T2 sequence: T1 sequence (Q5SXC4 1-518)
Nature of the data set: EMSA. Particulars: 20 mM Hepes pH 7.5, 10 mM MgCl2, 50 mM NaCl, 1 mM EDTA, 5 ng/uL poly dA.dT, 10 min at room temperature, 5% acrylamide gel in 0.5x TBE.

Where “and” joins values, the source holds several entries; their conditions need not be identical. Equal values may be shown once.

For `O=C(O)c1ccccc1NC(c1ccccc1)c1ccc2cccnc2c1O` (centres unmarked) [compound 1, NSC1012], the “Activity Concentration” value in data set [1] is given as ~ 500 μM.
Consider `Cc1c(S(=O)(=O)O)ccc(N=Nc2c(O)c(C(=O)O)cc3ccccc23)c1Cl` [compound 2, NSC16087], for which the “% DNA Bound in EMSA (500 μM)” value in data set [2] was 22.56%.
On the same count and under the same terms, next, `NC(=O)c1nnn(Cc2cc(Cl)c(C(=O)c3ccc(Cl)cc3)c(Cl)c2)c1N` [compound 3, NSC609974]: 38.45%.
As a reminder, the Kd is the constant that tells how readily two partners part at equilibrium. Read a high Kd as weaker binding. Regarding “AGGCGCGCCCCGGTCCGGCGCTCCCCCCGCATCCCCGAGCCGGGGCGCGCCT (double strand) [HS4-FPIII Vezf1 site duplex]”, the binding signal in data set [3] (500 uM NSC1012, 640 nM Vezf1) is 7.38 % DNA bound; in data set [3] (500 uM T4 (503-1-83), 640 nM Vezf1, T4 effective at 20 uM (IC50)), 5.94 % DNA bound; in data set [3] (500 uM T6 (503-1-71 in text; 501-1-71 in Fig 5B legend), 640 nM Vezf1), 5.92 % DNA bound; in data set [3] it was 22.6 % DNA bound and 38.5 % DNA bound. Besides, the Kd in data set [3] (no inhibitor, 25 nM DNA, 50-1000 nM protein) worked out at 640 nM.

For the origin of these results see article PMC6100598, “Characterization of Small Molecules Inhibiting the Pro-Angiogenic Activity of the Zinc Finger Transcription Factor Vezf1” (Molecules : A Journal of Synthetic Chemistry and Natural …, 2018).
